Laboratory results published in patent US20040038297.

T1: complement factor C4, P0C0L4
T1 chain: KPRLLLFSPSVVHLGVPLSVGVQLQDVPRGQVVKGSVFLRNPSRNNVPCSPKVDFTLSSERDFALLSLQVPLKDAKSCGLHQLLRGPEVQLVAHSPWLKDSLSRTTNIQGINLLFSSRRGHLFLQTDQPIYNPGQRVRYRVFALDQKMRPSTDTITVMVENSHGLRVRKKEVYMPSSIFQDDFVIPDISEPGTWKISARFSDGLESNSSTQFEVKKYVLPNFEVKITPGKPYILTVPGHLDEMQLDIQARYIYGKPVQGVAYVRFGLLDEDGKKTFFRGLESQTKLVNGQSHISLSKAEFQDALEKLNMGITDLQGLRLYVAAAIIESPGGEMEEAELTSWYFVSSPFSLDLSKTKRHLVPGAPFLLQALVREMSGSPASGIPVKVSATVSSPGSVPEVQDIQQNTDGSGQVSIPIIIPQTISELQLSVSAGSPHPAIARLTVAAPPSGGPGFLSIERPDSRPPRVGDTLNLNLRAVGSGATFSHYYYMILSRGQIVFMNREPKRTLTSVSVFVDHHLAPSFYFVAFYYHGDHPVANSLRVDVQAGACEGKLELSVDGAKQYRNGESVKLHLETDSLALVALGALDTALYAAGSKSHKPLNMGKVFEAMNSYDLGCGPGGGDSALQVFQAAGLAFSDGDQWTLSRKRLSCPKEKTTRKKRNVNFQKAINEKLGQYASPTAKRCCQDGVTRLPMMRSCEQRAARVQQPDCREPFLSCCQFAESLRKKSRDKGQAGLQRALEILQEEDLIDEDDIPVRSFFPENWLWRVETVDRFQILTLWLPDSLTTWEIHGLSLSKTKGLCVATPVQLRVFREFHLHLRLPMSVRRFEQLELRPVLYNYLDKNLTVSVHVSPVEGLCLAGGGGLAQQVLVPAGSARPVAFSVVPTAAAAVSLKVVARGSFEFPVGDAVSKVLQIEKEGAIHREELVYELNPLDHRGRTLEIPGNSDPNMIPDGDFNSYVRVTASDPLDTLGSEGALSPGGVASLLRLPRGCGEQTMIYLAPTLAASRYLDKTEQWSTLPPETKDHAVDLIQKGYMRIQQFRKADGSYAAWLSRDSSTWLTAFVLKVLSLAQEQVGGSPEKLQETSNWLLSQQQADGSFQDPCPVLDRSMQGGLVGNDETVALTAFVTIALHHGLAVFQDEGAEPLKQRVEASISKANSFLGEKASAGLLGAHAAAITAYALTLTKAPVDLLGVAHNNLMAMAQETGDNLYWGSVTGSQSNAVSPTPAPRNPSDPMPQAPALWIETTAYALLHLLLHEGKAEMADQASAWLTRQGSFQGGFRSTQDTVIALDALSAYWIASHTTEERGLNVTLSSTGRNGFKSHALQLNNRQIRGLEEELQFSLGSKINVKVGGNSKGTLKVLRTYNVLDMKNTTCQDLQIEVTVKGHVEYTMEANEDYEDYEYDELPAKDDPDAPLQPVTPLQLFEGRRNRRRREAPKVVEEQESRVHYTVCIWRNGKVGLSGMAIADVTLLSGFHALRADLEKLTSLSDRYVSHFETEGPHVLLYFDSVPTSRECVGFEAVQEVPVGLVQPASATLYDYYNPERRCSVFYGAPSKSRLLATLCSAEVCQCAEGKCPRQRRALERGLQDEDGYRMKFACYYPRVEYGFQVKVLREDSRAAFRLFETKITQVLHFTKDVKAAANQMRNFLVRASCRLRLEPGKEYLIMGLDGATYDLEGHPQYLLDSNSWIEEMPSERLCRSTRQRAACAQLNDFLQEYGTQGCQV


Biological target: T1, complement factor C4, P0C0L4

Row | Protein | C4 deposition on a Western blot incubated with human serum (C4 converting activity)
1 | C1s (protein) EPTMYGEILSPNYPQAYPSEVEKSWDIEVPEGYGIHLYFTHLDIELSENCAYDSVQIISGDTEEGRLCGQRSSNNPHSPIVEEFQVPYNKLQVIFKSDFSNEERFTGFAAYYVATDINECTDFVDVPCSHFCNNFIGGYFCSCPPEYFLHDDMKNCGVNCSGDVFTALIGEIASPNYPKPYPENSRCEYQIRLEKGFQVVVTLRREDFDVEAADSAGNCLDSLVFVAGDRQFGPYCGHGFPGPLNIETKSNALDIIFQTDLTGQKKGWKLRYHGDPMPCPKEDTPNSVWEPAKAKYVFRDVVQITCLDGFEVVEGRVGATSFYSTCQSNGKWSNSKLKCQPVDCGIPESIENGKVEDPESTLFGSVIRYTCEEPYYYMENGGGGEYHCAGNGSWVNEVLGPELPKCVPVCGVPREPFEEKQRIIGGSDADIKNFPWQVFFDNPWAGGALINEYWVLTAAHVVEGNREPTMYVGSTSVQTSRLAKSKMLTPEHVFIHPGWKLLEVPEGRTNFDNDIALVRLKDPVKMGPTVSPICLPGTSSDYNLMDGDLGLISGWGRTEKRDRAVRLKAARLPVAPLRKCKEVKVEKPTADAEAYVFTPNMICAGGEKGMDSCKGDSGGAFAVQDPNDKTKFYAAGLVSWGPQCGTYGLYTRVKNYVDWIMKTMQENSTPRED | C4 deposition, which could be inhibited by enzyme inhibitors, was observed at a position corresponding to C1r and C1s, which are not separated by the technique employed
2 | mannan-binding lectin associated serine protease-2 (MASP-2) (protein) TPLGPKWPEPVFGRLASPGFPGEYANDQERRWTLTAPPGYRLRLYFTHFDLELSHLCEYDFVKLSSGAKVLATLCGQESTDTERAPGKDTFYSLGSSLDITFRSDYSNEKPFTGFEAFYAAEDIDECQVAPGEAPTCDHHCHNHLGGFYCSCRAGYVLHRNKRTCSALCSGQVFTQRSGELSSPEYPRPYPKLSSCTYSISLEEGFSVILDFVESFDVETHPETLCPYDFLKIQTDREEHGPFCGKTLPHRIETKSNTVTITFVTDESGDHTGWKIHYTSTAHACPYPMAPPNGHVSPVQAKYILKDSFSIFCETGYELLQGHLPLKSFTAVCQKDGSWDRPMPACSIVDCGPPDDLPSGRVEYITGPGVTTYKAVIQYSCEETFYTMKVNDGKYVCEADGFWTSSKGEKSLPVCEPVCGLSARTTGGRIYGGQKAKPGDFPWQVLILGGTTAAGALLYDNWVLTAAHAVYEQKHDASALDIRMGTLKRLSPHYTQAWSEAVFIHEGYTHDAGFDNDIALIKLNNKVVINSNITPICLPRKEAESFMRTDDIGTASGWGLTQRGFLARNLMYVDIPIVDHQKCTAAYEKPPYPRGSVTANMLCAGLESGGKDSCRGDSGGALVFLDSETERWFVGGIVSWGSMNCGEAGQYGVYTKVINYIPWIENIISDF | C4 was deposited at a position corresponding to the MASP-2 band
3 | MASP-1 (MBP-associated serine protease) (protein) HTVELNNMFGQIQSPGYPDSYPSDSEVTWNITVPDGFRIKLYFMHFNLESSYLCEYDYVKVETEDQVLATFCGRETTDTEQTPGQEVVLSPGSFMSITFRSDFSNEERFTGFDAHYMAVDVDECKEREDEELSCDHYCHNYIGGYYCSCRFGYILHTDNRTCRVECSDNLFTQRTGVITSPDFPNPYPKSSECLYTIELEEGFMVNLQFEDIFDIEDHPEVPCPYDYIKIKVGPKVLGPFCGEKAPEPISTQSHSVLILFHSDNSGENRGWRLSYRAAGNECPELQPPVHGKIEPSQAKYFFKDQVLVSCDTGYKVLKDNVEMDTFQIECLKDGTWSNKIPTCKIVDCRAPGELEHGLITFSTRNNLTTYKSEIKYSCQEPYYKMLNNNTGIYTCSAQGVWMNKVLGRSLPTCLPVCGLPKFSRKLMARIFNGRPAQKGTTPWIAMLSHLNGQPFCGGSLLGSSWIVTAAHCLHQSLDPEDPTLRDSDLLSPSDFKIILGKHWRLRSDENEQHLGVKHTTLHPQYDPNTFENDVALVELLESPVLNAFVMPICLPEGPQQEGAMVIVSGWGKQFLQRFPETLMEIEIPIVDHSTCQKAYAPLKKKVTRDMICAGEKEGGKDACAGDSGGPMVTLNRERGQWYLVGTVSWGDDCGKKDRYGVYSYIHHNKDWIQRVTGVRN | no C4 deposition was observed at positions corresponding to MASP-1
